Results as given in patent US20190257837.

Biological target: T1, human recombinant nidogen-1 (intact, incubated without proteases), P14543
T1 chain: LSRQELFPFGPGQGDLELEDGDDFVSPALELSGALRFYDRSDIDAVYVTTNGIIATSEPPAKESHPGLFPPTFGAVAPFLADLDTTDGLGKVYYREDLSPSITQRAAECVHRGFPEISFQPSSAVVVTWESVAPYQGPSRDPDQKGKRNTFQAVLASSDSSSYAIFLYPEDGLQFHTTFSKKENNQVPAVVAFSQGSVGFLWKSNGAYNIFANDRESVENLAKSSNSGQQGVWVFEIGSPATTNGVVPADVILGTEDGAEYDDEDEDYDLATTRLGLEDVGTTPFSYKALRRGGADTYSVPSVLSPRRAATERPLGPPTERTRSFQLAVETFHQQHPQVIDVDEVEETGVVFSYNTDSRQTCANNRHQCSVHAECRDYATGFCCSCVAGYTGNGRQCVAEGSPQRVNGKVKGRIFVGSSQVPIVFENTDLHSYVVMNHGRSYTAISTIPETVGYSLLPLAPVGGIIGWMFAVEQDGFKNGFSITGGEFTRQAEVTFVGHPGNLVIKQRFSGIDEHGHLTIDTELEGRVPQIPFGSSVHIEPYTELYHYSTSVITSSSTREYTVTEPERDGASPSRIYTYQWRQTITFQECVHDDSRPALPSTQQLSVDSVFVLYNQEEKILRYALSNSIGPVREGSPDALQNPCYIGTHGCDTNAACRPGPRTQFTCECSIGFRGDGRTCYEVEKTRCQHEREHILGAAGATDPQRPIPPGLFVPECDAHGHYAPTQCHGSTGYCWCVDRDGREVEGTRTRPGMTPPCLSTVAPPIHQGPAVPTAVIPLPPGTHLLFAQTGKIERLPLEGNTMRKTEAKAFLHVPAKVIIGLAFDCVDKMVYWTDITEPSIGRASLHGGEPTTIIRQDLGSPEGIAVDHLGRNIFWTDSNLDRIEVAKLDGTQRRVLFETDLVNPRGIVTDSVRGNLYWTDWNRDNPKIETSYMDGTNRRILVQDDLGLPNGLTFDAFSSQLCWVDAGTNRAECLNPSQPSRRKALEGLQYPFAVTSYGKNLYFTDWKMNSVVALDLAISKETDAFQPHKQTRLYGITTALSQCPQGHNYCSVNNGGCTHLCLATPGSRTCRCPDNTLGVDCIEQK

B1: human recombinant cathepsin S (protein)
chain: LPDSVDWREKGCVTEVKYQGSCGACWAFSAVGALEAQLKLKTGKLVSLSAQNLVDCSTEKYGNKGCNGGFMTTAFQYIIDNKGIDSDASYPYKAMDQKCQYDSKYRAATCSKYTELPYGREDVLKEAVANKGPVSVGVDARHPSFFLYRSGVYYEPSCTQNVNHGVLVVGYGDLNGKEYWLVKNSWGHNFGEEGYIRMARNKGNHCGIASFPSYPEI
NIC levels after incubating nidogen-1 with CatS (competitive NIC ELISA): Approximately 5-fold higher levels of NIC were detected after incubating nidogen-1 with CatS for 24 h
